Publication PMC8326427

Molecular target: T1, rDHX36 (G4R1/RHAU) (UniProt Q9H2U1 1-1008)
T1 sequence: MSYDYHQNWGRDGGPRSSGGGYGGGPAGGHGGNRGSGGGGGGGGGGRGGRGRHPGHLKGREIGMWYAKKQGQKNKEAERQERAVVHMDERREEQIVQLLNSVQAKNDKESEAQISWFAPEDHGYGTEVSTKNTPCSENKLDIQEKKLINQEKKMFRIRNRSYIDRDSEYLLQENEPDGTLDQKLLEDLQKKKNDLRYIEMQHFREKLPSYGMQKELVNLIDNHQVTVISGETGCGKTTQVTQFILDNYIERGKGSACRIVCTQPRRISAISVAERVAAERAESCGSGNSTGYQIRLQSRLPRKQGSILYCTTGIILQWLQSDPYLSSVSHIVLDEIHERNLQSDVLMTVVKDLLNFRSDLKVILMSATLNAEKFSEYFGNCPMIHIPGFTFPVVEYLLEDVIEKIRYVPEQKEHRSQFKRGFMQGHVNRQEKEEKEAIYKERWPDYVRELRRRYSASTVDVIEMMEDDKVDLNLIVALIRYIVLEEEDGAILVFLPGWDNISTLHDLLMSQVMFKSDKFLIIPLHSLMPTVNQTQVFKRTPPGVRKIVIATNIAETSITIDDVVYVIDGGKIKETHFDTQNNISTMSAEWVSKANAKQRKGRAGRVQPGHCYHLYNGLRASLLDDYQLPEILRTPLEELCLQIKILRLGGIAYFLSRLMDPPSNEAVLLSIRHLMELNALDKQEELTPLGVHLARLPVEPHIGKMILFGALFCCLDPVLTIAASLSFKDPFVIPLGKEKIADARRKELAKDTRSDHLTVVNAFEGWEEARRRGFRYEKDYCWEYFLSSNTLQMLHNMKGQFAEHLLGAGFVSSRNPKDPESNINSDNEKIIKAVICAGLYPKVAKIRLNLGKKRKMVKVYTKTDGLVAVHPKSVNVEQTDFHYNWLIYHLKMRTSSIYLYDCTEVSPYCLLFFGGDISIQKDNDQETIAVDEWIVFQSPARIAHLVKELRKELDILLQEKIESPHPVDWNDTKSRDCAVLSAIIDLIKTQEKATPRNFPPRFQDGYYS
Test: EMSA

GGGGCCGGGGCCGGGGCCGGGGCCGGGGCCGTTAGAATTTTT (structured_DNA) [(G4C2)5-DNA, annealed with KCl (G4)]
binding result: binds
